Article PMC12594925 (Nature Communications, 2025)

Legend:
[1] = molecular target: DOR-MOR (Rattus norvegicus, UniProt P33535); test: cAMPinG1 cAMP inhibition assay, cells expressing DOR-MOR; assay type: cell-based; details: 7 µM forskolin then 50 nM DAMGO; MOR and DOR at 5-10 fluorescent spots/µm2
[2] = molecular target: KOR in K-cells (Rattus norvegicus, UniProt P34975); test: Ca2+ mobilization via Gqi5; assay type: cell-based
[3] = molecular target: DOR in D-cells (Rattus norvegicus, UniProt P33533)
DOR in D-cells, sequence (P33533 whole entry): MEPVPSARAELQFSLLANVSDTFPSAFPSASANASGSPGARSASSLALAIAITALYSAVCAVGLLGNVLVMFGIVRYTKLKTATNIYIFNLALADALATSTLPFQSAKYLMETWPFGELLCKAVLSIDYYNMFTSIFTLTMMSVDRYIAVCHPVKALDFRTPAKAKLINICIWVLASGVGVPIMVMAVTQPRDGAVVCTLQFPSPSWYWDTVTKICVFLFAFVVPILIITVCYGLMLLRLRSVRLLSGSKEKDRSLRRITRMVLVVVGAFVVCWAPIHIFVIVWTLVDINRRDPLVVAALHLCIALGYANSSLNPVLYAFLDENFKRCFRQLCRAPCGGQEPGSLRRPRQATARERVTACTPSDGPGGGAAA

[4] = molecular target: MOR-MOR (MM) homodimer (Rattus norvegicus, UniProt P33535); details: cited from earlier work
MOR-MOR (MM) homodimer, sequence (P33535 whole entry): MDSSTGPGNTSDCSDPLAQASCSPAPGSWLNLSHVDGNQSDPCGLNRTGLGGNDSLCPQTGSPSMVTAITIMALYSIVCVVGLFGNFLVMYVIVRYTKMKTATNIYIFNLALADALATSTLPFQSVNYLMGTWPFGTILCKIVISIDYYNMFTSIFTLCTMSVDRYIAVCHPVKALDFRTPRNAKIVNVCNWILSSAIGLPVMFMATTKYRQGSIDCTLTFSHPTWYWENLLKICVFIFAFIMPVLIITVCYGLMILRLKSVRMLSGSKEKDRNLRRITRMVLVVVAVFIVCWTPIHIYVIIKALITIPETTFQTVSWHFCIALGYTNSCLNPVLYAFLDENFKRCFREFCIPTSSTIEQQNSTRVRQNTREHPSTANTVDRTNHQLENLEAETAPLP

[5] = molecular target: MOR in M-cells (Rattus norvegicus, UniProt P33535); test: Ca2+ mobilization via Gqi5; assay type: cell-based; details: [FMax-Fb]/Fb of Fluo-4
MOR in M-cells, sequence (P33535 whole entry): as above

[6] = molecular target: MOR and DOR in MD-cells (Rattus norvegicus, UniProt P33535); test: Ca2+ mobilization via Gqi5; assay type: cell-based; details: increase greater with DAMGO than morphine
MOR and DOR in MD-cells, sequence (P33535 whole entry): as above

[7] = molecular target: DOR-KOR (DK) heterodimer (Rattus norvegicus, UniProt P33533+P34975); test: DK colocalization index, two-color single-molecule TIRF imaging; assay type: binding
DOR-KOR (DK) heterodimer, sequence (P33533 whole entry): as the sequence (P33533 whole entry) above
DOR-KOR (DK) heterodimer, sequence (P34975 whole entry): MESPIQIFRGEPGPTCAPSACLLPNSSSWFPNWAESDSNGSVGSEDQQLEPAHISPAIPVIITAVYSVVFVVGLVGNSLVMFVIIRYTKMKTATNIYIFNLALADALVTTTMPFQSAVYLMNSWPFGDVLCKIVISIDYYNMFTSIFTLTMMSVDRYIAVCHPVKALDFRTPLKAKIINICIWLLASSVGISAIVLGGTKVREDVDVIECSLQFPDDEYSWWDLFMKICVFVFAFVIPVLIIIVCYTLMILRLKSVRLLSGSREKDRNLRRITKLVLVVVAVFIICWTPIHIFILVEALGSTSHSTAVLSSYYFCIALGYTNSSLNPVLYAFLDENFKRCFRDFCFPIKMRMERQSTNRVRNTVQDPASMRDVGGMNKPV

[8] = molecular target: DOR-MOR (DM) heterodimer (Rattus norvegicus, UniProt P33533+P33535); assay type: binding; details: for Effect on DM heterodimerization: DOR and MOR at 0.5-1.0 spots/µm2
DOR-MOR (DM) heterodimer, sequence (P33533 whole entry): as the sequence (P33533 whole entry) above
DOR-MOR (DM) heterodimer, sequence (P33535 whole entry): as the sequence (P33535 whole entry) above

[9] = molecular target: DOR (Rattus norvegicus, UniProt P33533); test: Colocalization of expressed TM peptides with WT-DOR; assay type: binding; details: all molecules expressed at 0.5–1.0 fluorescent spots/µm2
DOR, sequence (P33533 whole entry): as the sequence (P33533 whole entry) above

[10] = molecular target: MOR (Rattus norvegicus, UniProt P33535); test: Colocalization of expressed TM peptides with WT-MOR; details: both expressed at 0.5–1.0 fluorescent spots/µm2
MOR, sequence (P33535 whole entry): as the sequence (P33535 whole entry) above

DOR-MOR, sequence (P33535 whole entry): as above
KOR in K-cells, sequence (P34975 whole entry): as the sequence (P34975 whole entry) above

Compound: C[C@@H](NC(=O)[C@@H](N)Cc1ccc(O)cc1)C(=O)NCC(=O)N(C)[C@@H](Cc1ccccc1)C(=O)NCCO [DAMGO]
- DAMGO-induced cAMP concentration decrease via Gi [1]: greater when DOR was co-expressed
- Ca2+ response to M-agonist [2]: No response was evident
- Ca2+ response to M-agonist [3]: No response was evident
- Effect on MM homodimerization and MM dimer lifetime [4]: enhanced MM homodimerization and slightly elongated the MM dimer lifetime
- Ca2+ signal induced by M-agonist [5]: induced comparable Ca²⁺ signals
- Ca2+ response to M-agonist compared to M-cells [6]: enhanced Ca²⁺ responses

Compound: EL3-domain peptide of MOR: peptide with the MOR EL3 sequence (IIKALVTIPETTFQTV; UniProt P35372 303-318, looked up, fragment)
- Blocking of DK heterodimerization (DK colocalization index) [7]: but not that of MOR, block DK heterodimerization
- Blocking of DM heterodimers ([8]; soluble EL3-domain peptides (Supplementary Fig. 2b)): failed to block DM heterodimers

Compound: Nterm-TM1^MOR: TM1^MOR construct also containing amino acids 53-70 before the TM1 domain (GGRDSLCPPTGSPSMITAITIMALYSIVCVVGLFGNFLVMYVIVRYT; UniProt P35372 53-99, looked up, fragment)
- Colocalization with WT-DOR [9]: colocalized with DOR, like the full-length MOR
- Effect on DM heterodimerization [8]: suppressed DM heterodimerization in an expression level-dependent manner

Compound: TM1^DOR: DOR TM1 peptide expressed in the PM (ITALYSAVCAVGLLGNVLVMFGIVRYTKM; UniProt P41143 52-80, looked up, fragment)
- Colocalization with WT-MOR [10]: moderately colocalized with MOR

Compound: TM1^MOR: membrane-integral peptide, MOR TM1 (amino acids 71-99), expressed in the PM (ITIMALYSIVCVVGLFGNFLVMYVIVRYT; UniProt P35372 71-99, looked up, fragment)
- Colocalization with WT-DOR [9]: colocalized with DOR, like the full-length MOR
- Effect on DM heterodimerization [8]: suppressed DM heterodimerization in an expression level-dependent manner
